Here are results for two molecules from paper doi:10.1101/2024.02.23.581811 (bioRxiv, 2024).

This test has as its target β2-adrenergic receptor (Homo sapiens (Human)., UniProt P07550). As to the kind of experiment: linear dichroism.

B1: NB80-eGFP-HRas (VHH)
VHH: QVQLQESGGGLVQAGGSLRLSCAASGSIFSINTMGWYRQAPGKQRELVAAIHSGGSTNYANSVKGRFTISRDNAANTVYLQMNSLKPEDTAVYYCNVKDYGAVLYEYDYWGQGTQVTVSS
For B1, the binding result is recorded as “binds”.

B2: NB80Lite-eGFP-HRas (VHH)
VHH: QVQLQESGGGLVQAGGSLRLSCAASGSIFSINTMGWYRQAPGKQRELVAAISSGGGSAYANSVKGRFTISRDNAANTVYLQMNSLKPEDTAVYYCNVKDYGAVLYEYDYWGQGTQVTVSS
Turning to B2, the binding result was “binds”.
